Source: publication PMC10482388, “A novel homeostatic mechanism tunes PI(4,5)P2-dependent signaling at the plasma membrane” (Journal of Cell Science, 2023)

Target: (Gly)5–PIP5K1A (aa 1–546), purified human PIP5K1A (human, UniProt Q99755 1-546)
Test: cell-based or functional assay

(Gly)5–PIP5K1A (aa 1–546), purified human PIP5K1A, sequence (Q99755 other isoform, or with tags, fused parts or gaps): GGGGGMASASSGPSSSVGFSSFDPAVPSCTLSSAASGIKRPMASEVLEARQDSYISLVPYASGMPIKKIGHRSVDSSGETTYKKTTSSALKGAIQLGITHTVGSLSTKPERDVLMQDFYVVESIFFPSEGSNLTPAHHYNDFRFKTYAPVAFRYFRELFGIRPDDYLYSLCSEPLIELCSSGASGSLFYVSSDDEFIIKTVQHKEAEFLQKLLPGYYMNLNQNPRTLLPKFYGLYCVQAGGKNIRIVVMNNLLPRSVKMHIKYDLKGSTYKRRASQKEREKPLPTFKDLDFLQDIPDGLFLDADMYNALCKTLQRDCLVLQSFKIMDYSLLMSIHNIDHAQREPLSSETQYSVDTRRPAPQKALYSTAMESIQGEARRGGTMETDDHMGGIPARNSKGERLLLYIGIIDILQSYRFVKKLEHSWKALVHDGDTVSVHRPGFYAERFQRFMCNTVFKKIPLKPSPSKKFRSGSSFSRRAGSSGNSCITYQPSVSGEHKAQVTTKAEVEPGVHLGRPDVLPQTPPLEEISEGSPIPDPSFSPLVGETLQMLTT

B1: (Gly)5–PIP4K2A (aa 1–406), purified human PIP4K2A (enzyme)
chain: GGGGGMATPGNLGSSVLASKTKTKKKHFVAQKVKLFRASDPLLSVLMWGVNHSINELSHVQIPVMLMPDDFKAYSKIKVDNHLFNKENMPSHFKFKEYCPMVFRNLRERFGIDDQDFQNSLTRSAPLPNDSQARSGARFHTSYDKRYIIKTITSEDVAEMHNILKKYHQYIVECHGITLLPQFLGMYRLNVDGVEIYVIVTRNVFSHRLSVYRKYDLKGSTVAREASDKEKAKELPTLKDNDFINEGQKIYIDDNNKKVFLEKLKKDVEFLAQLKLMDYSLLVGIHDVERAEQEEVECEENDGEEEGESDGTHPVGTPPDSPGNTLNSSPPLAPGEFDPNIDVYGIKCHENSPRKEVYFMAIIDILTHYDAKKKAAHAAKTVKHGAGAEISTVNPEQYSKRFLDFIGHILT
modifications: fluorescently labelled LPETGG peptide (Alexa Fluor 488, Alexa Fluor 647 or Cy5) ligated by sortase onto the N-terminal (Gly)5 motif
In the case of B1, the “kinetics of PI(4,5)P2 production on PI4P-containing supported lipid bilayers, 1 nM PIP5K1A with or without 50 nM PIP4K2A; time to completion of the reaction” value is reported as 2 fold (reaction completion time).
